Consider six variants from IntAct's records for PubMed 20371349.

Sequences and labels used below:
B1: Catenin delta-1 (Homo sapiens), O60716-5 (parent)
chain: MDDSEVESTASILASVKEQEAQFEKLTRALEEERRHVSAQLERVRVSPQDANPLMANGTLTRRHQNGRFVGDADLERQKFSDLKLNGPQDHSHLLYSTIPRMQEPGQIVETYTEEDPEGAMSVVSVETSDDGTTRRTETTVKKVVKTVTTRTVQPVAMGPDGLPVDASSVSNNYIQTLGRDFRKNGNGGPGPYVGQAGTATLPRNFHYPPDGYSRHYEDGYPGGSDNYGSLSRVTRIEERYRPSMEGYRAPSRQDVYGPQPQVRVGGSSVDLHRFHPEPYGLEDDQRSMGYDDLDYGMMSDYGTARRTGTPSDPRRRLRSYEDMIGEEVPSDQYYWAPLAQHERGSLASLDSLRKGGPPPPNWRQPELPEVIAMLGFRLDAVKSNAAAYLQHLCYRNDKVKTDVRKLKGIPVLVGLLDHPKKEVHLGACGALKNISFGRDQDNKIAIKNCDGVPALVRLLRKARDMDLTEVITGTLWNLSSHDSIKMEIVDHALHALTDEVIIPHSGWEREPNEDCKPRHIEWESVLTNTAGCLRNVSSERSEARRKLRECDGLVDALIFIVQAEIGQKDSDSKLVENCVCLLRNLSYQVHREIPQAERYQEAAPNVANNTGPHAASCFGAKKGKGKKPIEDPANDTVDFPKRTSPARGYELLFQPEVVRIYISLLKESKTPAILEASAGAIQNLCAGRWTYGRYIRSALRQEKALSAIADLLTNEHERVVKAASGALRNLAVDARNKELIGKHAIPNLVKNLPGGQQNSSWNFSEDTVISILNTINEVIAENLEAAKKLRETQGIEKLVLINKSGNRSEKEVRAAALVLQTIWGYKELRKPLEKEGWKKSDFQVNLNNASRSQSSHSYDDSTLPLIDRNQKSDKKPDREEIQMSNMGSNTKSLDNNYSTPNERGDHNRTLDRSGDLGDMEPLKGTTPLMQKI
B2: Catenin delta-1 (Homo sapiens), O60716-29 (parent)
chain: MIGEEVPSDQYYWAPLAQHERGSLASLDSLRKGGPPPPNWRQPELPEVIAMLGFRLDAVKSNAAAYLQHLCYRNDKVKTDVRKLKGIPVLVGLLDHPKKEVHLGACGALKNISFGRDQDNKIAIKNCDGVPALVRLLRKARDMDLTEVITGTLWNLSSHDSIKMEIVDHALHALTDEVIIPHSGWEREPNEDCKPRHIEWESVLTNTAGCLRNVSSERSEARRKLRECDGLVDALIFIVQAEIGQKDSDSKLVENCVCLLRNLSYQVHREIPQAERYQEAAPNVANNTGPHAASCFGAKKGKGKKPIEDPANDTVDFPKRTSPARGYELLFQPEVVRIYISLLKESKTPAILEASAGAIQNLCAGRWTYGRYIRSALRQEKALSAIADLLTNEHERVVKAASGALRNLAVDARNKELIGKHAIPNLVKNLPGGQQNSSWNFSEDTVISILNTINEVIAENLEAAKKLRETQGIEKLVLINKSGNRSEKEVRAAALVLQTIWGYKELRKPLEKEGWKKSDFQVNLNNASRSQSSHSYDDSTLPLIDRNQKSDKKPDREEIQMSNMGSNTKSLDNNYSTPNERGDHNRTLDRSGDLGDMEPLKGTTPLMQKI

In the first assay the parent is B1. Conditions: with cadh1_human CDH1, P12830.
Sequence of cadh1_human CDH1, P12830 (P12830 whole entry): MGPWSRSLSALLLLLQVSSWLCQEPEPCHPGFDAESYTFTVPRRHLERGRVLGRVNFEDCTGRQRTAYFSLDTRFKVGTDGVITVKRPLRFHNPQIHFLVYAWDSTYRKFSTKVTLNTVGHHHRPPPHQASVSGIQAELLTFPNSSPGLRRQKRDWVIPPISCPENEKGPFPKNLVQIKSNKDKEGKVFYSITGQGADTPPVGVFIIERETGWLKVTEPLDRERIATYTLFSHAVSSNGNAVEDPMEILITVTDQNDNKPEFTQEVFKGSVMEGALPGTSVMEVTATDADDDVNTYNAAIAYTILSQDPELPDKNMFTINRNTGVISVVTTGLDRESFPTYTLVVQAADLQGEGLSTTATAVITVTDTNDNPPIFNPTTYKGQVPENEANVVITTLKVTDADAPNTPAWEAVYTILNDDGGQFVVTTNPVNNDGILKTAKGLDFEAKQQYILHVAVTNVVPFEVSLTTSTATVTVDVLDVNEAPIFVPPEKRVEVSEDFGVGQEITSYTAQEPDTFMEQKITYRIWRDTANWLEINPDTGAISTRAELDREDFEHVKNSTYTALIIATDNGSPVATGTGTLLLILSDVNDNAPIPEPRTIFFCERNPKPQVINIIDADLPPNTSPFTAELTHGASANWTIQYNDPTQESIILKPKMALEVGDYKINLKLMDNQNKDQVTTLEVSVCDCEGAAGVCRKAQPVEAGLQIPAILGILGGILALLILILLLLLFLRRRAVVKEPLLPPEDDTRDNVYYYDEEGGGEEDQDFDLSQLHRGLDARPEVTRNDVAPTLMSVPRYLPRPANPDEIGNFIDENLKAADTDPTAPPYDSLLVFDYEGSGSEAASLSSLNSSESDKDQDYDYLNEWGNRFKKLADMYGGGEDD
For the variant K401M, the “effect of a mutation on the interaction” value is “decreasing interaction”. For N478A, the “effect of a mutation on the interaction” value is “decreasing interaction”.

The variants in a further assay derive from B2. Conditions: with cadh1_mouse Cdh1, P09803.
Sequence of cadh1_mouse Cdh1, P09803 (P09803 whole entry): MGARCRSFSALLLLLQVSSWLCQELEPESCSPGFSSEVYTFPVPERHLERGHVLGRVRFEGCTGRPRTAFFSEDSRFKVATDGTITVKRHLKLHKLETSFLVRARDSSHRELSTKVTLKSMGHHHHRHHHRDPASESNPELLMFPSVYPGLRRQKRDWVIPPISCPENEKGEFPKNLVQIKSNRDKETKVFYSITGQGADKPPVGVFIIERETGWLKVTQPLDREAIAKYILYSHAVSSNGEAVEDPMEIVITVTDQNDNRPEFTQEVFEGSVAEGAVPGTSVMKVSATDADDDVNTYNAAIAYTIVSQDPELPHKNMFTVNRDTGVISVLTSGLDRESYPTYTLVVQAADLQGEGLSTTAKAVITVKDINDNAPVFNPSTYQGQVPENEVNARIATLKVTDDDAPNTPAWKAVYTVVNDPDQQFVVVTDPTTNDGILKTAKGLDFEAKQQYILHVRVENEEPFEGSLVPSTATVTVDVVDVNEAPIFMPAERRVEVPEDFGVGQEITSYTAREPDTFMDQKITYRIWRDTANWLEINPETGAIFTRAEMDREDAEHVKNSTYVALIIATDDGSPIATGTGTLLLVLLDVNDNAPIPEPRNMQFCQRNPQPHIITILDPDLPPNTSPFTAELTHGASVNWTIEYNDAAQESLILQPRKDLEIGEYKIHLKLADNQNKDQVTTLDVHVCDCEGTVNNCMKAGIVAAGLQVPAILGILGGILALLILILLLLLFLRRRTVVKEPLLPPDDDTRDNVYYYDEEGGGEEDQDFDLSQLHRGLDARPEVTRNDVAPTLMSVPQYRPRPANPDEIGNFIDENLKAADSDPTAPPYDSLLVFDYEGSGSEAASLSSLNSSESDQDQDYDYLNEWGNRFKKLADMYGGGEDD
For W154A, the “effect of a mutation on the interaction” value was “decreasing interaction”. As to K121M, the “effect of a mutation on the interaction” value is recorded as “disrupting interaction”.

On to K78M, for which the “effect of a mutation on the interaction” value is given as “disrupting interaction”. On to N155A, for which the “effect of a mutation on the interaction” value is listed as “disrupting interaction”.
